Experimental data published in US20210347882A1 (Johns Hopkins, published 2021).
Positions count from the first letter of the chain named.

T1: human Resistin-Like Molecule Beta (human, UniProt Q9BQ08 24-111, limits assumed)
T1 construct: also called hRELMβ; RELMβ
T1 sequence (looked up): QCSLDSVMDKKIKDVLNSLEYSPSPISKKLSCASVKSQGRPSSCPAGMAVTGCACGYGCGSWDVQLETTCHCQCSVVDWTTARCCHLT

T2: human Resistin (human, UniProt Q9HD89 19-108)
T2 construct: The sandwich ELISA used the R&D kit standard; also called hResistin; huRes
T2 sequence (looked up): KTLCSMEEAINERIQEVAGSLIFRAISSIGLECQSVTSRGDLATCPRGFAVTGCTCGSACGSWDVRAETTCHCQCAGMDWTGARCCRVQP

B1: Clone 1 rIgG (antibody, V domains shown)
VH: EVQLLESGGGLVQPGGSLRLSCAASGFTFSSYAMSWVRQAPGKGLEWVSSISQRGRKTLYADSVKGRFTISRDNSKNTLYLQMNSLRAEDTAVYYCAKGLRRFDYWGQGTLVTVSS
VL: DIQMTQSPSSLSASVGDRVTITCRASQSISSYLNWYQQKPGKAPKLLIYMASHLQSGVPSRFSGSGSGTDFTLTISSLQPEDFATYYCQQPRSTPLTFGQGTKVEIKR
notes: Fully human IgG1 converted from scFv, tested as supernatant of expressing cells; Possibly the same clone as Ab1
B2: Clone 18 rIgG (antibody, V domains shown)
VH: B1 VH with S50T, S52H, Q53K, R54T, R56S, K57P, L59Y, G99S, R101K, R102Y
VL: B1 VL with M50R, T94L, L96A
notes: Fully human IgG1 converted from scFv, tested as supernatant of expressing cells
B3: Clone 2 rIgG (antibody, V domains shown)
VH: B1 VH with S50T, S52T, Q53T, R54T, R56T, K57A, L59W, G99T, R101Q
VL: B1 VL with M50E, H53V, T94L, L96M
notes: as for B2
B4: Clone 13 rIgG (antibody, V domains shown)
VH: B1 VH with S52Y, Q53P, R54Q, R56L, K57R, L59Y, G99N, R101A, R102K
VL: B1 VL with M50R, H53T, S93A, T94L, L96G
notes: Fully human IgG1 converted from scFv, tested as supernatant of expressing cells; Possibly the same clone as Ab13

Assays:
[1] = molecular target: T1, human Resistin-Like Molecule Beta; assay: QC ELISA, hRELMβ coated 0.5 µg/well, IgG supernatant, FITC-goat anti-human IgG
Description: (§1) As a result, 4 IgGs (Clones 1, 2, 13 and 18) bind to two targets positively. hRELMβ: 0.5 μg/well; hResistin: 5 μg/well; secondary antibody: FITC-goat anti-human IgG pAb.

human Resistin = molecular target: T2, human Resistin; assay: QC ELISA, hResistin coated 5 µg/well, IgG supernatant, FITC-goat anti-human IgG
Description: as §1

Binder	binding result [1]	binding result (human Resistin)
B1	binds	binds
B2	binds	binds
B3	binds	binds
B4	binds	binds
